The assay addresses 2526 IgG3. As to the kind of experiment: ELISA. The note with it: read off a plot.

Turning to “H1 NC99 trimer, wild type HA (Fig 5A) (from UniProt Q6WG00) N23T”, the response (parent: est. 4.0) is 2.8 Abs (450nm).
Consider WT-NTD N61A, for which the response was 2.7 Abs (450nm).
Same read-out and setting: then WT-NTD N149A, with 1 Abs (450nm); and WT-NTD N165A, with 2.7 Abs (450nm); and WT-NTD N234A, with 1.7 Abs (450nm).

Values taken from publication PMC11410209.
